# Data published in patent US20260132200A1 (Regeneron, published 2026).
# Residue numbers refer to the chain shown, from its start. Read-outs that look alike come from different tables or passages of the source.
# T1: human CD20 expressed on Raji cells (CD3-, CD20+ human B-cell line) (human, UniProt P11836 1-297)
# T1 sequence: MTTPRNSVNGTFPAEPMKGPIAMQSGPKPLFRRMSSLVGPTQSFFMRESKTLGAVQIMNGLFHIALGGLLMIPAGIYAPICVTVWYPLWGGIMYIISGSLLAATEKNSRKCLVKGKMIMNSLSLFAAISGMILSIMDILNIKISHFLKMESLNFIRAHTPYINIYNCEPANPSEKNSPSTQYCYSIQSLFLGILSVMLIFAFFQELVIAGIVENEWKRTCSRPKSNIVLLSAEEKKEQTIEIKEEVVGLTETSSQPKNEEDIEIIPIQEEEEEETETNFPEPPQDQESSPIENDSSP
# T2: human CD3 expressed on cells (Jurkat, a CD3+ human T-cell line; human T cells) (human, UniProt P07766 23-126; P04234 22-100)
# T2 construct: also called FACS JURKAT
# T2 chain 1: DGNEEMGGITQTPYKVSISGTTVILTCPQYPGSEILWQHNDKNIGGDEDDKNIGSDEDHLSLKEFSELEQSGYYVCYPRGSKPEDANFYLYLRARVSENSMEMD
# T2 chain 2: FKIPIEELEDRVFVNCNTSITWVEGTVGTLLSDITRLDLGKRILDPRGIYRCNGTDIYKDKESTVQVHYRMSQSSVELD
# T3: Soluble heterodimeric CD3 protein (hCD3-epsilon/hCD3-delta) with either a human Fc tag (hFcΔAdp/hFc) or a … (human, UniProt P07766 23-126; P04234 22-100)
# T3 construct: Soluble construct; not shown: Fc tag: human (hFcΔAdp/hFc)
# T3 chain 1: T2 chain 1
# T3 chain 2: T2 chain 2
# B1: BS3/20-007 (bispecific antibody, V domains shown)
# VH 1: EVQLVESGGGLVQPGRSLRLSCVASGFTFNDYAMHWVRQAPGKGLEWVSVISWNSDSIGYADSVKGRFTISRDNAKNSLYLQMHSLRAEDTALYYCAKDNHYGSGSYYYYQYGMDVWGQGTTVTVSS
# VH 2: DVQLVQSGAEVKKPGASVKVSCKASGYTFTRYTMHWVRQAPGQGLEWIGYINPSRGYTNYADSVKGRFTITTDKSTSTAYMELSSLRSEDTATYYCARYYDDHYCLDYWGQGTTVTVSS
# VL: DIVLTQSPATLSLSPGERATLSCRASQSVSYMNWYQQKPGKAPKRWIYDTSKVASGVPARFSGSGSGTDYSLTINSLEAEDAATYYCQQWSSNPLTFGGGTKVEIK
# B2: BS3/20-004 (bispecific antibody, V domains shown)
# VH 1: B1 VH 1
# VH 2: QVQLVESGGGVVQPGRSLRLSCAASGFTFRSYAMHWVRQAPGKGLEWVAMVYYDGNNQYYADSVRGRFTISRDNSKNTLYLQMNSLRADDTAVYFCARGPGYNWLDPWGQGTLVTVSS
# VL: EIVMTQSPATLSVSPGERATLSCRASQSVSRNLAWYQQKPGQAPRLLIYGASTRATGIPARFSGSGSGTDFTLTISSLQSEDFAVYYCQQYNNWPLTFGGGTKVVIK
# B3: BS3/20-005 (bispecific antibody, V domains shown)
# VH 1: B1 VH 1
# VH 2: QVQLVESGGGVVQPGRSLRLACVASGFTFRSYGMHWVRQAPGKGLQWVAMIYYDGKNKYYADSVRGRFTISRDNSKNTLYLQMNNLRVEDTAMYFCARGPGYNWLDPWGQGTLVTVSS
# VL: B2 VL with S28R, V29I, R31S, I58S, F83V, Y91H, N92H, V105E
# B4: BS3/20-002 (bispecific antibody, V domains shown)
# VH 1: B1 VH 1
# VH 2: EVQLVESGGGLVQPGGSLRLSCAATGFTFDDFTMHWVRQAPGKGLEWVSGISWNSGSIGYVDSVKGRFTISRDNAKNSLYLQMNSLRAEDTALYYCAKDNSGYGYYYYGMDVWGQGTTVTVSS
# VL: B2 VL with Q27H, L33S, D70E, V85I, V105E
# B5: H1H5786B (antibody, human IgG1, V domains shown)
# VH: QVQLVESGAEVKKPGASVKVSCKTSGYTFTGYYMHWIRQAPGQGLEWMGWINPKSGGTNYAQKFQGRVTMTRDTSISTAYMELSRLRSDDMAVYYCARMGDGAVFDFWGQGTLVTVSS
# VL: AIQMTQSPSSLSASVGDRVTITCRASQRISSFLNWYQQKPGKAPKLLIYTASNLQNGVPSRFSGSGSGTDFTLTISSLQPEDFATYYCQQSYRTPLTFGGGTKVEIKR
# B6: H1H5790B (antibody, human IgG1, V domains shown)
# VH: EVQLVESGGGVVQPGRSLRLSCAASGFTFSYYGMHWVRQAPGKGLEWVAVISFDGKNKYYADSVMGRFTISRDNSKNTLYLQMNSLRAEDSAVFFCARSYDILTGYGAGYSYHYGMDVWGQGTTVTVSS
# VL: B5 VL
# B7: H1H5798B (antibody, human IgG1, V domains shown)
# VH: QVQLVQSGGGLVKPGGSLRLSCAASGFTFSSYDMSWVRQAPGKGLEWVSYISSSGNTIHYADSVKGRFTISRDNSKNSLYLQMNSLRAEDTAVYYCAKAGPATVTRRYYYYYGLDVWGQGTTVTVSS
# VL: B5 VL with A1D, Q3V, G16R, F32Y, Y36F, L46V, N53S
# B8: H1H5795B (antibody, human IgG1, V domains shown)
# VH: B5 VH with Q1E, T28S, T30I, M34I, I37M, G57V, K63R, R87K, M91T, Y95F
# VL: B5 VL with A1D, M4L, A43V, S65T, E105D
# B9: H1H5792B (antibody, human IgG1, V domains shown)
# VH: QVQLVESGGGVVQPGRSLRLSCAASGFTFSSYGMHWVRQAPGKGLEWVSTISFDGSNKYYADSVKGRFTISRDNSKNTLYLQMNSLRPEDTAVYYCAKGGGTSGSYFYYGMDVWGQGTTVTVSS
# VL: B5 VL with V104L
# B10: H1H5801B (antibody, human IgG1, V domains shown)
# VH: QVQLVQSGGGVVQPGGSLRLSCAASGFTFDDYAMHWVRQAPGKGLEWVSLISGDGGSTYYADSVKGRFTISRDNSKNSLYLQMNSLRTEDTALYYCAKDDSSSSWYYYYYGMDVWGRGTTVTVSS
# VL: B5 VL with A1D, F32Y, L46V, Y49S, T50V, N53S, N56S, T85S, R93N
# B11: H1H5791B (antibody, human IgG1, V domains shown)
# VH: B5 VH with F29L, T30S, I37M, G57V, G66D, T69A, M91T, G109A
# VL: B5 VL with A1D, M4L, V104L
# B12: H1H5793B (antibody, human IgG1, V domains shown)
# VH: QVQLVQSGTEVKKPGASMKVSCKASGYTFTGYYIHWVRQAPGQGLEWMGWINPNSDVTKYAQKFQGRVTLTRDTSISAAYIDLSRLRSDDTAIYYCARMGDGAVFDYWGQGTLVTVSS
# VL: DIQLTQSPSSLSASVGDRVTITCRASQRISSYLNWYQQKPGKAPKVLISVASSLQSGVPSRFSGSGFGTDFTLTISSLQPEDSASYYCQQSYNTPLTFGGGTKLEIKR
# B13: H1H5797B (antibody, human IgG1, V domains shown)
# VH: B12 VH with M18V, I34M, K59N, A78T
# VL: B12 VL with L4M, F67S, S83F, L104V
# B14: H2M3547N (antibody, V domains shown)
# VH: EAQLVESGGGLVQPGRSLRLSCTTSGFTFDDYTMHWVRQAPGKGLEWISDISWNGGTKGYADSVKGRFTISRDNAKNSLYLQMDSLRGEDTALYYCVKDKSGYGHFYFGLDVWGQGTTVTVSS
# VL: DIQMTQSPSSLTASVGDRVTFTCRASQSISRHLSWYQQKPGKAPKLLIYAASSLESGVPSRFSGSGSGTDFTLTISSLHPEDFATYYCQQSYSNPPITFGQGTRLEIK
# notes: mouse IgG2 Fc, human variable regions
# B15: H1H5782P (antibody, human IgG1, V domains shown)
# VH: EVQLVESGGGLVQPGRSLRLSCAASGFTFDDYAMHWVRQAPGKGLEWVSGISWNSGSKDYADSVKGRFTISRDNTRNSLFLQMNSLRTEDTALYYCAKDKSGYGSFYYGMDVWGQGTTVTVSS
# VL: not shown
# Columns and labels:
# [1] = biological target: T1, human CD20 expressed on Raji cells …; test: cell-based or functional assay
# [2] = biological target: T1, human CD20 expressed on Raji cells …; test: FACS on Raji cells
# Protocol: (§1) CD20×CD3 bispecific antibodies and Control constructs, as set forth in Example 1, were tested via FACS for their ability to bind to Jurkat (CD3+, CD20− human T-cell line), Raji (CD3−, CD20+ Human B-cell line), or cynomolgus PBMCs (“mkT cells”).
# (§2) FACS data was acquired using the following protocol: Cells at 2×10⁵ per well were incubated with serially diluted antibodies for 30 min on ice. Post incubation, cells were washed and appropriate secondary (Jurkat, RAJI cells) or cocktail of secondary antibodies (for cyno PBMC) was added and incubated for an additional 30 minutes. After incubation, cells were washed, re-suspended in cold PBS containing 1% BSA and analyzed by flow cytometry on a BD FACS Canto II. Jurkat and Raji cells were gated by side and forward scatters, while cynomolgus T cells were also gated in a CD2+CD4+ population. The EC₅₀s for cell binding titration were determined using Prism software with values calculated using a 4-parameter non-linear regression analysis.
# [3] = biological target: T2, human CD3 expressed on cells (Jurkat, a …); test: FACS on Jurkat cells
# Protocol: as §1, §2
# [4] = biological target: T2, human CD3 expressed on cells (Jurkat, a …); test: cell-based or functional assay
# [5] = biological target: T1, human CD20 expressed on Raji cells …; test: cell-based or functional assay; remark: listed apart in the source
# [6] = biological target: T2, human CD3 expressed on cells (Jurkat, a …); test: cell-based or functional assay
# [7] = biological target: T3, Soluble heterodimeric CD3 protein …; test: SPR Biacore 25C antigen-capture
# Protocol: Measurements were conducted on a T200 Biacore instrument.
# In the antigen-capture format, heterodimeric CD3 protein was captured using a rabbit anti-mouse Fc or mouse anti-human Fc and the respective antibodies were injected over the captured antigen.
# Kinetic association (kₐ) and dissociation (kd) rate constants were determined by processing and fitting the data to a 1:1 binding model using Scrubber 2.0 curve fitting software. Binding dissociation equilibrium constants (KD) and dissociative half-lives (t_{1/2}) were calculated from the kinetic rate constants as: KD (M)=kd/kₐ; and t_{1/2} (min) (ln 2/(60*kd). NT=not tested; NB=no binding observed.
binder,measurement,setting,value
B1,"CDC EC50, Raji",[1],2.62 nM
same,"CDC EC50, Raji SCID1",[1],101 nM
same,"CDC EC50, Raji SCID2",[1],8.83 nM
same,"CDC EC50, Raji SCID3",[1],37.7 nM
same,"CDC EC50, Raji SCID4",[1],140 nM
same,"T-Cell Mediated Cytotoxicity EC50, Raji",[1],0.00166 nM
same,"T-Cell Mediated Cytotoxicity EC50, Raji SCID1",[1],0.00111 nM
same,"T-Cell Mediated Cytotoxicity EC50, Raji SCID2",[1],0.000652 nM
same,"T-Cell Mediated Cytotoxicity EC50, Raji SCID3",[1],0.000293 nM
same,"T-Cell Mediated Cytotoxicity EC50, Raji SCID4",[1],0.00153 nM
B2,EC50,[2],10.2 nM
same,EC50,[3],48.9 nM
same,U937 Cytotoxicity Human T-cells [M] (EC50),[4],6.07e-11 M
same,Raji Cytotoxicity Human T-cells [M] (EC50),[5],1.29e-11 M
B3,EC50,[2],81.7 nM
same,Raji Cytotoxicity Human T-cells [M] (EC50),[5],1.95e-11 M
B4,EC50,[2],11.5 nM
same,EC50,[3],56.2 nM
same,U937 Cytotoxicity Human T-cells [M] (EC50),[4],8.24e-10 M
same,Raji Cytotoxicity Human T-cells [M] (EC50),[5],7.71e-11 M
B5,U937 Cytotoxicity Human T-cells [M] (EC50),[6],6.1e-11 M
B6,U937 Cytotoxicity Human T-cells [M] (EC50),[6],8.71e-11 M
B7,U937 Cytotoxicity Human T-cells [M] (EC50),[6],1.81e-10 M
B8,U937 Cytotoxicity Human T-cells [M] (EC50),[6],6.74e-11 M
B9,U937 Cytotoxicity Human T-cells [M] (EC50),[6],1.4e-10 M
B10,U937 Cytotoxicity Human T-cells [M] (EC50),[6],9.23e-11 M
B11,U937 Cytotoxicity Human T-cells [M] (EC50),[6],8.01e-11 M
B12,U937 Cytotoxicity Human T-cells [M] (EC50),[6],8.85e-11 M
B13,U937 Cytotoxicity Human T-cells [M] (EC50),[6],5.76e-10 M
B14,koff,[7],1e-05 s⁻¹
same,kon,[7],470000 M⁻¹ s⁻¹
B15,U937 Cytotoxicity Human T-cells [M] (EC50),[6],5.18e-12 M
